We go through one molecule from article PMC12260524, “Identification of a VPS29 isoform with restricted association to Retriever and Retromer accessory proteins through autoinhibition” (Proceedings of the National Academy of Sciences of the …, 2025).

The target in the assay is GST-VPS29C (human, UniProt F8VXU5 1-214). As to the kind of experiment: ITC; 300 μM peptide titrated into 10 μM GST-tagged VPS29C, 25 °C, 50 mM Tris-HCl pH 7.5, 200 mM NaCl, 2 mM β-mercaptoethanol; single-site model. The note with it: both partners purified.

B1: VPS35L 16 to 38 (peptide)
peptide: EFASCRLEAVPLEFGDYHPLKPI
notes: also called VPS35L Pro-Leu motif containing peptide
In the case of B1, the Kd (as a rule, the equilibrium constant for the complex coming apart) was > 100 µM.
